These results are taken from US9809653B2, “Anti-LAMP1 antibodies and antibody drug conjugates, and uses thereof” (SANOFI, priority 2012, dated 2017).

Test [1] addresses T1, recombinant human LAMP1 (29-382 of SEQ ID NO: 28) (Homo sapiens, UniProt P11279).
T1 construct: made in house; host or cells: HEK293 (293-F), transient expression, IMAC-purified
T1 sequence (P11279 with tags, fused parts or gaps): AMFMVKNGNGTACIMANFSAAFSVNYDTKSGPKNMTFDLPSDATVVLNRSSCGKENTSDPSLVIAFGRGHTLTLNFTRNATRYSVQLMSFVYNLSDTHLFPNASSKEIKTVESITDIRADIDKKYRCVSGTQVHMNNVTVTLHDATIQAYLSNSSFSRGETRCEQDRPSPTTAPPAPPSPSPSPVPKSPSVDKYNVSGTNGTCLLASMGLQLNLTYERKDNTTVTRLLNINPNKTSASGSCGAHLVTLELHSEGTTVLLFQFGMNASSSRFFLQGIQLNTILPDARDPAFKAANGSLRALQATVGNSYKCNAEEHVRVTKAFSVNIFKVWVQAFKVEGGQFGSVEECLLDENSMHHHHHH
In words: ELISA on recombinant human LAMP1. The class given is binding.

The test system of test [2] is Colon Colo205 tumoral cells expressing LAMP1. In words: Internalization score by ImageStream multispectral imaging flow cytometer. The settings on record: Colo205, 10 μg/ml AlexaFluor488-labeled antibody. The class given is cell-based, human. The text has this: The internalization score (IS) is defined as a ratio of the fluorescence intensity inside the cell to the intensity of the entire cell. […] The higher the score, the greater the fluorescence intensity is inside the cell. As described by Amnis (see the world wide web at amnis.com), the inside of the cell is defined by an erosion of a mask that fits the membrane of the cell. The score is invariant to cell size and can accommodate concentrated bright regions and small dim spots. The ratio is mapped to a logarithmic scale to increase the dynamic range to values between {−inf, inf}. The thickness of the membrane (in pixels) determines which pixels are used to define the boundary and the membrane portions of the cell. The user supplies an ‘internal’ mask based on the brightfield image that covers the inside of the cell, the thickness of the membrane in pixels and the fluorescent channel of interest. The cell is divided into 2 regions: External (B) and internal (I). The user supplies the internal region as the mask. The external region is determined by: 1. Dilating the internal mask by the membrane thickness. 2. Combining 1 with the object mask of the channel of interest. 3. External region equals mask 2 and not the internal mask. Next, the mean intensity of the upper quartile of the pixels in each region is determined. The Internalization Score (IS) is then computed as follows:
Cells were washed by centrifugation with PBS 1% BSA at 400 g for 5 minutes. Cells were fixed and permeabilized using 100 μL of Perm/Fix buffer on ice for 20 minutes. Cells were washed by centrifugation with 1 mL of Perm/Wash Cell buffer at 400 g for 5 minutes.
To test whether internalized antibodies accumulate in lysosomes, simultaneous uptake of mAbs and AlexaFluor647-labeled CD107a (a lysosomal marker) were carried out. […] After incubation, 1 mL Perm/Wash Cell buffer was added to wash, before centrifuging (400 g, 5 min). The supernatant was flicked from the plate before the cells were fixed with 200 μL 1% formaldehyde on ice for 20 minutes. The fluorescence of cells was analyzed with the ImageStream multispectral imaging flow cytometer (Amnis corp.) using the Internalization feature. Five thousand events were acquired for each experimental condition and the corresponding images were analyzed using the IDEAS image-analysis software.

The target in test [3] is T2, LAMP1 (SEQ ID NO: 28 protein) (Homo sapiens, UniProt P11279).
T2 construct: made in house; host or cells: HEK293 (293-F), transient expression, IMAC-purified
T2 sequence (P11279 with tags, fused parts or gaps): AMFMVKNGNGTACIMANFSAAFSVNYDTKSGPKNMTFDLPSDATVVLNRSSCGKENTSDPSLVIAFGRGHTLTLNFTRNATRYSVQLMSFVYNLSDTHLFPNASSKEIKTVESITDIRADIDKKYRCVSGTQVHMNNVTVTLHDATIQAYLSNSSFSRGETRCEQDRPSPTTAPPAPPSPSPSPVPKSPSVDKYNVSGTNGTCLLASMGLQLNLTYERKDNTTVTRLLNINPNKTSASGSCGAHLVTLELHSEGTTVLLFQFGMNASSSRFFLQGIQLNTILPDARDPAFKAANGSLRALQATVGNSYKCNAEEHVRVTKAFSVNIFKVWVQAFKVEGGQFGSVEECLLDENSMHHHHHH
The test can be described thus: Affinity to LAMP1 by SPR (BIAcore 2000). Format: binding. The protocol:
The use of surface plasmon resonance to determine is known to the skilled in the art. In one example the binding kinetics of for example the murine, chimer or humanized anti-LAMP1 mAbs were determined by surface plasmon resonance assay using typically a BIAcore 2000 (BIAcore Inc., Uppsala, N.J.). Therefore, for example a CM5 BIAcore biosensor chip was docked into the instrument and activated with for example 70 μL of 1:1 NHS/EDC at room temperature. Typically, a mouse anti-αhuman Fc IgG1 (BIAcore #BR-1008-39) and rabbit anti-αmurine Fc IgG1 (BIAcore #BR-1008-38) (50 μg/mL in 1 M acetate buffer, pH5) were immobilized on the activated chips in all flow cells. The immobilization was carried out at a flow rate of for example 10 μL/min up to saturation. The chip was then blocked by for example injection of 70 μL of ethanolamine-HCl, pH 8.5, followed by one wash with 3 M MgCl2 for anti-αhuman Fc IgG1 and one wash with 10 mM Glycine-HCl pH 1.7 for anti-αmurine Fc IgG1. To measure the binding of for example anti-LAMP1 mAbs to LAMP1, antibodies were used at 1-5 μg/mL in BIAcore running buffer (HBS-EP). The antigen for example (Sequence ID No 28 protein produced as described in example 6.2) was injected from for example 1 to 256 nM. Following completion of the injection phase, dissociation was monitored in a BIAcore running buffer at the same flow rate for typically 600 sec. The surface was typically regenerated between injections using for example 2×5 μL 3 M MgCl2 (2×30 s) or anti-αhuman Fc IgG1 and 1×30 μL 10 mM Glycine-HCl pH 1.7 for anti-αmurine Fc IgG1 (180 s). Individual sensorgrams were typically analyzed using BIAevaluation software.
The binding kinetics of the murine, chimer or humanized anti-LAMP1 mAbs were determined by surface plasmon resonance assay using a BIAcore 2000 (BIAcore Inc., Uppsala, N.J.). Briefly, a CM5 BIAcore biosensor chip was docked into the instrument and activated with 70 μL of 1:1 NHS/EDC at room temperature. A mouse anti-αhuman Fc IgG1 (BIAcore #BR-1008-39) and rabbit anti-αmurine Fc IgG1 (BIAcore #BR-1008-38) (50 μg/mL in 1 M acetate buffer, pH5) were immobilized on the activated chips in all flow cells. The immobilization was carried out at a flow rate of 10 μL/min up to saturation. The chip was then blocked by injection of 70 μL of ethanolamine-HCl, pH 8.5, followed by one wash with 3 M MgCl2 for anti-αhuman Fc IgG1 and one wash with 10 mM Glycine-HCl pH 1.7 for anti-αmurine Fc IgG1. To measure the binding of anti-LAMP1 mAbs to LAMP1, antibodies were used at 1-5 μg/mL in BIAcore running buffer (HBS-EP). The antigen (SEQ ID NO: 28 protein produced as described in example 6.2) was injected from 1 to 256 nM. Following completion of the injection phase, dissociation was monitored in a BIAcore running buffer at the same flow rate for 600 sec. The surface was regenerated between injections using 2×5 μL 3 M MgCl2 (2×30 s) or anti-αhuman Fc IgG1 and 1×30 μL 10 mM Glycine-HCl pH 1.7 for anti-αmurine Fc IgG1 (180 s). Individual sensorgrams were analyzed using BIAevaluation software.

Setting [4] is: ELISA (Table 7), read-out: EC50.
Where [5] appears, read: ELISA (Table 13), read-out: EC50 (nM) human LAMP1.
Where [6] appears, read: ELISA (Table 21), read-out: EC50 obtained for murine hybridoma mAbs hLAMP1.

Values joined by “and” are separate entries in the source; they are usually repeats but may differ in a detail not shown here. Identical values can stand only once. Like-named read-outs stand apart in the source and are kept apart here.

B1: MAb1: murine monoclonal anti-LAMP1 antibody, VH SEQ ID NO: 1, VL SEQ ID NO: 5 (antibody, V domains shown)
VH: QVQLQQSGAELVKPGASVKMSCKASGYIFTNYNIHWVKKSPGQGLEWIGAIYPGNGDAPYSQKFKDKATLTADKSSSTTYMQLSRLTSEDSAVYYCVRANWDVAFAYWGQGTLVSVSA
VL: DIQMTQSPPSLSASLGGKVTITCKASQDIDRYMAWYQDKPGKGPRLLIHDTSTLQPGIPSRFSGSGSGRDYSFSISNLEPEDIATYYCLQYDNLWTFGGGTKLEIK
modifications: Antibody Fragment; antibody fragment
With B1, the EC50 – broadly, the midpoint of the concentration-response curve – in test [1] (setting [4]) was 0.18 nM. For the same molecule, in test [1] (setting [5]), the EC50 was 0.18 nM. In test [1] (setting [6]), the EC50 was determined as 0.18 nM. In addition, the EC50 in test [1] (ELISA, read-out: EC50 to LAMP1) is 0.16 nM and ~0.2 nM. In test [2], the “Internalization score (IS) 4° C., 4 hr” value turned out to be 0.22 and the “Internalization score (IS) 37° C., 4 hr” value was 2.22. For the same molecule, in test [3], binding was put at a Kd of 4.8 nM, the ka was found to be 148000 M⁻¹ s⁻¹ and the kd was determined as 0.00071 s⁻¹.

B2: MAb2: murine monoclonal anti-LAMP1 antibody, VH SEQ ID NO: 8, VL SEQ ID NO: 12 (antibody, V domains shown)
VH: QVQLQQSAAELARPGASVKMSCKASGYTFTSYTMHWVKQRPGQGLEWIGYFNPSSGYPEYNQKFKDKTTLTADKSSNTAFIQLNSLTSEDSAVYYCSRGYYYGSRGYALDFWGQGASVTVSS
VL: NIVLTQSPVSLAVSLGQRATISCRASESVDINGNTFMHWYQQKPGQSPKLVIYAASNIESGVPARFSGSGSSTDFTFTIDPVEADDVATYYCQQNIEDPWTFGGGTKVEIK
modifications: antibod fragment; antibody fragment
Consider B2, for which the EC50 in test [1] (setting [4]) was 0.25 nM; in test [1] (setting [5]), 0.25 nM; in test [1] (setting [6]), 0.25 nM; in test [1] (ELISA, read-out: EC50 to LAMP1), roughly 0.3 nM. The “Internalization score (IS) 4° C., 4 hr” value in test [2] worked out at 0.19. Also, the “Internalization score (IS) 37° C., 4 hr” value in test [2] was 2.24. In addition, in test [3], the Kd (usually a measure of binding affinity in units of concentration) amounted to 63.5 nM. This molecule gave a ka in test [3] of 63300 M⁻¹ s⁻¹. In test [3], this molecule registered a kd of 0.00402 s⁻¹.
